Test: yeast display, Sf9 membrane polyspecificity reagent, FACS + sequencing; frameworks hold sequencing errors
Summary of the method: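 Polyreactivity labels are assigned by the sorting gate from which each nanobody was recovered. The gates were low and high (top ~1%), set on anti-HA fluorescence for expression and streptavidin fluorescence for reagent binding. Before sorting, galactose-induced (36–48 hours) yeast display cells were stained for 1 hour at 4 °C with 10% biotinylated, detergent-solubilized Sf9 membrane reagent.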
In the case of “QVQLVESGGGLVQAGGSLRLSCAASGRIFGYYAMGWYRQAPGKERELVAAISRSGSSTYYADSVKGRFTISRDNAKNTVYLQMNSLKPEDTAVYYCNSEKYYRAYLLPFNYWGQGTQVTVSS”, the “polyreactivity (PSR sort gate)” value is reported as “high polyreactivity”. With “QVQLVESGGGLVQAGGSLRLSCAASGRIFGYYAMGWYRQAPGKERELVAAISYSGGRTYYADSVKGRFTISRDNAKNTVYLQMNSLKPEDTAVYYCNARSRSYKWYTRTGYGYDYWGQGTQVTVSS” the “polyreactivity (PSR sort gate)” value was “high polyreactivity”. In the case of “QVQLVESGGGLVQAGGSLRLSCAASGRIFGYYAMGWYRQAPGKERELVAAISYSGGSTYYADSVKGRFTISRDNAKYTVFLQMNSLKPEDTAVYYCNKVYSIRGYWGQGTQVTVSS”, the “polyreactivity (PSR sort gate)” value is reported as “high polyreactivity”. In the case of “QVQLVESGGGLVQAGGSLRLSCAASGRIFGYYAMGWYRQAPGKERELVAAITRGGSTNYADSVKGRFTISRDNAKNTVYLQMNSLKPEDTAVYYCNARRYRPGSASYDYWGQGTQVTVSS”, the “polyreactivity (PSR sort gate)” value is reported as “high polyreactivity”. For “QVQLVESGGGLVQAGGSLRLSCAASGRIFGYYAMGWYRQAPGKERELVAAITSGGRTYYADSVKGRFTISRDNAKNTVFLQMNSLKPEDTAVNYCAAVRALRKVRDYYYWGQGTQVTVSS”, the “polyreactivity (PSR sort gate)” value was “high polyreactivity”. For “QVQLVESGGGLVQAGGSLRLSCAASGRIFGYYAMGWYRQAPGKERELVATITFGGGSTYYADSVKGRFTISRDNAKNTVYLQMNSLIPEDSAVYYCAADSGYLGIYGDEYSWGQGTQVTVSS”, the “polyreactivity (PSR sort gate)” value was “low polyreactivity”. With “QVQLVESGGGLVQAGGSLRLSCAASGRIFGYYAMVCYRQAPGKERELVAAISSGGGSTYYADSVKGRFTISRDNAKNTVYLQMNSLKPEDTAVYYCIVAYRWSTRYDYWGQGTQVTVSS” the “polyreactivity (PSR sort gate)” value was “high polyreactivity”. For “QVQLVESGGGLVQAGGSLRLSCAASGRIFGYYVMGWYRQAPGKERELVAAIRSSADSTYYADSVKGRFTISRDNAKNTVYFQMNSLKPEDTAVYYCAAQSPAYYTKSYWGQGTQVTVSS”, the “polyreactivity (PSR sort gate)” value was “low polyreactivity”. In the case of “QVQLVESGGGLVQAGGSLRLSCAASGRIFHGNAMGWYRQAPGKERELVARISSSGGGTYYADSVKGRFTISRDNAKNTVYLQMNSLKPEDTAVYYCAARRPDHTEVSNLRYDSWGQGTQVTVSS”, the “polyreactivity (PSR sort gate)” value is reported as “low polyreactivity”. In the case of “QVQLVESGGGLVQAGGSLRLSCAASGRIFHGYAMGWYRQAPGKDRELVAVIRSGVNTNYADSVKGRFTISRDNAKNTVYLQMNSLKPADTAVYYCAVDYTPEDWGDDYWGQGTHVTVSS”, the “polyreactivity (PSR sort gate)” value is reported as “low polyreactivity”. For “QVQLVESGGGLVQAGGSLRLSCAASGRIFHHNAMVSYRQAPGKEMELVATITWSGGRTYYADSVKGRFTISRDNAKNTVYLQMNSLKPEDTAVYYCAASSYSYYGYRSYQSTYYYWGQGTQVTVSS”, the “polyreactivity (PSR sort gate)” value was “low polyreactivity”. For “QVQLVESGGGLVQAGGSLRLSCAASGRIFHHNVMGWYRPAPGKERELVAAISQSGGSTYYADSVKGRFTISRDNAKYTVYVQMNSLKPEDTAVYYCNAGAAGRRYNYWGQGTQVTVSS”, the “polyreactivity (PSR sort gate)” value was “low polyreactivity”. With “QVQLVESGGGLVQAGGSLRLSCAASGRIFHIYAMGWYRQAPGKERELVAAIRSSGGSTYYADSVKGRFTISRDNAKNTVYLQMNSLKPEDTAVYYCAVDYGNPVYWDEMYYWGQGTQVTVSS” the “polyreactivity (PSR sort gate)” value was “low polyreactivity”. With “QVQLVESGGGLVQAGGSLRLSCAASGRIFHRYAMGWYRQAPGKEREFVAAISSRGGSTYYADSLKGRFTISRDTAKNTVDFQINSLKPEETAVYYCAAQIGYRSGEFYYWGQGTQVTVSS” the “polyreactivity (PSR sort gate)” value was “high polyreactivity”. In the case of “QVQLVESGGGLVQAGGSLRLSCAASGRIFHTYAMGWYIQAPGKERELVAAISRSGGSTYYADSVKGRFTISRDNAKNTVYLQMNSLKPEDTAVYYCAADIRGPYGNRYKFYYWGQGTQVTVSS”, the “polyreactivity (PSR sort gate)” value is reported as “high polyreactivity”. For “QVQLVESGGGLVQAGGSLRLSCAASGRIFHYAMGWYRQAPGKERELVAGISKRGGSTYYADSVKGRFTISRDNAKNTVYLQMNSLKPEDTAVYYCAAGRAYDGTKHDYWGQGSQVTVSS”, the “polyreactivity (PSR sort gate)” value was “high polyreactivity”. In the case of “QVQLVESGGGLVQAGGSLRLSCAASGRIFHYNAMGWYRQAPGKERELVAAISTGGSTNYADSVKGRFTISRDNAKNTFYLQMYSLKPEDTAVYYCAADHPVTYPTSKFDFWGQGTQVTVSS”, the “polyreactivity (PSR sort gate)” value is reported as “low polyreactivity”. With “QVQLVESGGGLVQAGGSLRLSCAASGRIFHYYAMGWYRQAPGKERELVAAISWSGGSTYYADSVKGRFTISRDNAKNTVYLQMNSLKPEETAVYYCAARYVKTKGSFVVGYGYWGQGTQVTLSS” the “polyreactivity (PSR sort gate)” value was “high polyreactivity”. In the case of “QVQLVESGGGLVQAGGSLRLSCAASGRIFIANTMGWYRQAPGKERELVAAITQRGDSTYYADSVKGRFTISRDNAKNTVYLQMNSLKPVDTAVYYCAARSFRKYYIRYDYWGQGTQVTVSS”, the “polyreactivity (PSR sort gate)” value is reported as “high polyreactivity”. With “QVQLVESGGGLVQAGGSLRLSCAASGRIFIAYTMGWYRPAPGKERELVAAITWNGGSTYYADSVKGRFTISRDNAKNTVYLQMNSLKPEDTAVYYWVVVSRPGPKPAREMDYWGQGTQVTVSS” the “polyreactivity (PSR sort gate)” value was “low polyreactivity”. With “QVQLVESGGGLVQAGGSLRLSCAASGRIFIDNAMGWYRQAPGKERELVAAISWTGGRTYYADSVKGRFTISRDNAKKTVYLQMNSLKPEDPAVYYCAAKQYTRFGYYYWGQGSQVTVSS” the “polyreactivity (PSR sort gate)” value was “high polyreactivity”. With “QVQLVESGGGLVQAGGSLRLSCAASGRIFIEYAMGWYRQAPGKERELVATINSSGGRTYYADSVKGRFTISRDNAKNTVYLQMNSLKPEDTAVYYCAARGSYRGPYNVEYDSWGQGTQVTVSS” the “polyreactivity (PSR sort gate)” value was “low polyreactivity”. In the case of “QVQLVESGGGLVQAGGSLRLSCAASGRIFIQYGMVWYRQAPGKERELVAAIRSGDSTNYADSVKGRFTISRDNAKNTVYLQMNSLKPEDTSVYYCARDRPGDYAGYDYWGQGTQVTVSS”, the “polyreactivity (PSR sort gate)” value is reported as “low polyreactivity”. With “QVQLVESGGGLVQAGGSLRLSCAASGRIFIRDARGWYRPAPGKERELVAALTRGGSTYYADSVKGRFTISRDTAKNTVYLQMNSLKPEDTAVYYCAARVGYPYYYWGQGTQVTVSS” the “polyreactivity (PSR sort gate)” value was “high polyreactivity”. For “QVQLVESGGGLVQAGGSLRLSCAASGRIFIRNDMGWYRQAPGKERELVAVITRSGGRTYYADSVKGRFTISRDNAMNTVYLQMNSLKPEDTAVYYCAKRQAFKQAPYEYWGQGSQVTVSS”, the “polyreactivity (PSR sort gate)” value was “low polyreactivity”. For “QVQLVESGGGLVQAGGSLRLSCAASGRIFISNAMGWYRQAPGKERELVAAITWIGDRTYYADSVKGRFTISRDNAKITVYLQMNSLKPEDTAVYYCNRVTSRVSGRYSYDYWGQGTQVTVSS”, the “polyreactivity (PSR sort gate)” value was “high polyreactivity”. For “QVQLVESGGGLVQAGGSLRLSCAASGRIFISYTMGWDRQAPGKERELVAGIDSSGTSTYYADSVKGRFTISRDNAKNTVYLQMNSLKPEDTAVYYCNVDGNWKDTSTELDYWGQGTQVTVSS”, the “polyreactivity (PSR sort gate)” value was “low polyreactivity”. With “QVQLVESGGGLVQAGGSLRLSCAASGRIFITNAMGGYRQAPGKERELVASITVSGDSTYYADSVKGRFTISRDNAKNTVYLQMNSLKPEDTAVYYCAADYYALDKVLGYNYWGQGTQVTVSS” the “polyreactivity (PSR sort gate)” value was “low polyreactivity”. With “QVQLVESGGGLVQAGGSLRLSCAASGRIFIYNAMGWYRQAPGKERELVAAISSGGDTYYADSVKGRFTISRDNAKNTVYLQMNSLKPEDSAVYYCAATFVVKGTRFGYWGQGTQVTVSS” the “polyreactivity (PSR sort gate)” value was “high polyreactivity”. With “QVQLVESGGGLVQAGGSLRLSCAASGRIFIYYARGWYRQAPGKERELVAAISGGGGRTYYADSVKGRFTISRDNAKNTVYLQMNSLKPEDTAVYYCAAGVYTGQDEYDYWGQGTQVTVSS” the “polyreactivity (PSR sort gate)” value was “low polyreactivity”. In the case of “QVQLVESGGGLVQAGGSLRLSCAASGRIFKDNAMGWYRQAPGKERELVATIDSGGDTNYADSVKGRFTISRDNAKNTVYLQMNSLKPEDTAVYYCNTEGFLSAVYAFGYWGQGTQVTVSS”, the “polyreactivity (PSR sort gate)” value is reported as “low polyreactivity”. With “QVQLVESGGGLVQAGGSLRLSCAASGRIFKFYAMGWYRQAPGKERELVAGITTSGGSTYYADSVKGRFTISRDNAKNTVYLQMNSLKPEDTAVYYCAASRHFARHRGYYFRYDYWGQGTQVTVSS” the “polyreactivity (PSR sort gate)” value was “high polyreactivity”. For “QVQLVESGGGLVQAGGSLRLSCAASGRIFKGNAMGWYRQAPGKERELVAAISRNGGSTYYADSVKGRFTISRDNAKNTVSLLMNSLKPEDTAVYYCAAYGYRYTEGGWWRMDYWGQGTEVTVSS”, the “polyreactivity (PSR sort gate)” value was “high polyreactivity”. With “QVQLVESGGGLVQAGGSLRLSCAASGRIFKGYAMGWYRQAPGKERELVAAITWRGGTTYYADSVKGPFTISRDNAKNTVYLQMNSLKPEDTAVYYCAAANWQRYYYWGQGTQVTVSS” the “polyreactivity (PSR sort gate)” value was “high polyreactivity”. For “QVQLVESGGGLVQAGGSLRLSCAASGRIFKINAMGWYRQAPGKERELVAAITRSGGTTYYADSVMGRFTISRDHAKNTVYLQMNSLKPEDTAVYYCAARVVQYPYYYWGQGTQVTVSS”, the “polyreactivity (PSR sort gate)” value was “high polyreactivity”. In the case of “QVQLVESGGGLVQAGGSLRLSCAASGRIFKLNAMGWYRQAPGNERELVAAITFAGGSTYYADSVKGRFTISRDIAKNTVYLQMNSLKPEDTAVYYCNADFSNVEMDYWGQGTQVNVSS”, the “polyreactivity (PSR sort gate)” value is reported as “low polyreactivity”. With “QVQLVESGGGLVQAGGSLRLSCAASGRIFKLYAMGLYRQAPGKERELVAASSKSGGSTYYADSVKGRFKISRDNAKNTVYLQMNSLKPEDSAVYYCNADPVRSGLDYWGQGTQVTVSS” the “polyreactivity (PSR sort gate)” value was “high polyreactivity”. In the case of “QVQLVESGGGLVQAGGSLRLSCAASGRIFKNYAKGWYRQAPGKERELVAAISWSGGRTYYSDSVKGRFTISRDNAKNTVYLQMNSLKPEYTAVYYCAARFRRTRVTYYYWGQGTQVTVSS”, the “polyreactivity (PSR sort gate)” value is reported as “high polyreactivity”. For “QVQLVESGGGLVQAGGSLRLSCAASGRIFKNYAMGWYRQAPGKERELVAAITWSGGRTYYADSVKGRFTISRDNAKNTVYLQMNSLKPEDTAVYYCATAARRGPTSIEPFGYGSWGQGTQVTVSS”, the “polyreactivity (PSR sort gate)” value was “high polyreactivity”. For “QVQLVESGGGLVQAGGSLRLSCAASGRIFKRNAKGWYRQAPGKEWELVATISGSGGSTYYADSVKGRFTISRDNAKNTVYLQMNSLKPEDTAVYYCAAVPGYPRDSLYNYWGQGSQVTVSS”, the “polyreactivity (PSR sort gate)” value was “high polyreactivity”. For “QVQLVESGGGLVQAGGSLRLSCAASGRIFKRNAMGWYRQAPGKERELVAAISWRGGSTYYADSVKGRFTISRDNAKNTVYLQMNSLKPEDTAVYYCNVGYGGSSDGGYDYWGQGTQVTVSS”, the “polyreactivity (PSR sort gate)” value was “high polyreactivity”.

Reference: the nanobody polyreactivity screen of Harvey et al. (2022)
